From paper PMC5941314, “Structural insights into the nanomolar affinity of RING E3 ligase ZNRF1 for Ube2N and its functional implications” (Biochemical Journal, 2018)

T1: ZNRF1^CTD (C-terminal domain of ZNRF1, residues 139–227) (UniProt Q8ND25 139-227)
T1 construct: ZNRF1, RING E3 ubiquitin ligase, residues 139-227 of the full-length protein (ZnF and RING domains); also called ZNRF1 C-terminal domain; ZRNF1^CTD; source: E. coli Rossetta2 (DE3), purified (HisTrap, SEC)
T1 sequence (looked up): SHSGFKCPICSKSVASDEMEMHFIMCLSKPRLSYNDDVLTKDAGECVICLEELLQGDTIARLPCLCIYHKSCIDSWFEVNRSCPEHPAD

T2: ZNRF1 full-length (UniProt Q8ND25 1-227)
T2 construct: ZNRF1, RING E3 ubiquitin ligase, full-length (ends at residue 227); The C-terminal strep-tag II is called non-cleavable; also called ZNRF1^FL; source: E. coli Rossetta2 (DE3), purified (HisTrap, StrepTrap HP, desalted); not shown: strep-tag II, C-terminal, kept
T2 sequence (looked up): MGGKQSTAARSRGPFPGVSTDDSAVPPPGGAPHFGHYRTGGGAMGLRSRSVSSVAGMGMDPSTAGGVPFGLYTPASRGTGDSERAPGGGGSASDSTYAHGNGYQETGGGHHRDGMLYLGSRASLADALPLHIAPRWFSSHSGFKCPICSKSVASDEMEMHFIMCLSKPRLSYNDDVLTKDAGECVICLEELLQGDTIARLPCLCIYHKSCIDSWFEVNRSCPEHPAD

B1: Ube2N (enzyme, UniProt P61088 1-152, looked up)
chain: MAGLPRRIIKETQRLLAEPVPGIKAEPDESNARYFHVVIAGPQDSPFEGGTFKLELFLPEEYPMAAPKVRFMTKIYHPNVDKLGRICLDILKDKWSPALQIRTVLLSIQALLSAPNPDDPLANDVAEQWKTNEAQAIETARAWTRLYAMNNI
notes: Ube2N, ubiquitin-conjugating enzyme E2 N; also called wtUbe2N; source: E. coli Rossetta2 (DE3), purified (ion exchange, SEC)
B2: ZNRF1^RING (residues 166–227) (domain or fragment, UniProt Q8ND25 166-227, looked up)
chain: SKPRLSYNDDVLTKDAGECVICLEELLQGDTIARLPCLCIYHKSCIDSWFEVNRSCPEHPAD
notes: ZNRF1, RING E3 ubiquitin ligase, residues 166-227 (RING domain); also called RING domain of ZNRF1; source: E. coli Rossetta2 (DE3), purified (HisTrap, SEC)
B3: ZNRF1^(CTD, E183A) (domain or fragment, UniProt Q8ND25 139-227, looked up)
chain: SHSGFKCPICSKSVASDEMEMHFIMCLSKPRLSYNDDVLTKDAGACVICLEELLQGDTIARLPCLCIYHKSCIDSWFEVNRSCPEHPAD
notes: ZNRF1, RING E3 ubiquitin ligase, residues 139-227 with E183A; also called ZRNF1^CTD,E183A; E183A mutant; source: E. coli Rossetta2 (DE3), purified

How the values were obtained:
Conditions in all cases: both partners purified
[1] = target: T1, ZNRF1^CTD (C-terminal domain of ZNRF1, …); assay: ITC; ZNRF1 construct (10–30 µM) in the cell, E2 in the syringe; 25°C; 20 mM sodium phosphate pH 8.0, 150 mM NaCl; single site model
ZNRF1 full-length = target: T2, ZNRF1 full-length; assay: as above
[2] = target: B2; assay: as above
ZNRF1^(CTD, E183A) = target: B3; assay: as above
[3] = target: T1, ZNRF1^CTD (C-terminal domain of ZNRF1, …); assay: ITC; ZNRF1^CTD in the cell, Ube2N in the syringe; 25°C; Na-phosphate pH 8.0, 300 mM NaCl; single site model
[4] = target: T1, ZNRF1^CTD (C-terminal domain of ZNRF1, …); assay: ITC; ZNRF1^CTD in the cell, Ube2N in the syringe; 25°C; Na-phosphate pH 8.0, 450 mM NaCl; single site model
Ube2N = target: B1; assay: ITC; ZNRF1 construct (10–30 µM) in the cell, E2 in the syringe; 25°C; 20 mM sodium phosphate pH 8.0, 150 mM NaCl; single site model

| dH [1] | stoichiometry N [1] | Binder | other results |
| --- | --- | --- | --- |
| -10.5 kcal/mol | 0.915 | B1 | Kd (ZNRF1 full-length): 49.5 nM; dH (ZNRF1 full-length): -9.17 kcal/mol; stoichiometry N (ZNRF1 full-length): 0.842; dH [2]: -10.9 kcal/mol; stoichiometry N [2]: 0.913; dH (ZNRF1^(CTD, E183A)): -9.42 kcal/mol; stoichiometry N (ZNRF1^(CTD, E183A)): 0.848; dH [3]: -9.63 kcal/mol; stoichiometry N [3]: 0.984; dH [4]: -9.26 kcal/mol; stoichiometry N [4]: 0.96 |
| -10.2 kcal/mol | 1.04 | Ube2N/Ube2V1 complex (complex, Ube2N, ubiquitin-conjugating enzyme E2 N; Ube2V1, ubiquitin-conjugating enzyme E2 variant 1; also called Ube2N/V1; source: E. coli Rossetta2 (DE3), each purified, mixed in stoichiometric amounts, complex isolated by SEC) chain 1: MAGLPRRIIKETQRLLAEPVPGIKAEPDESNARYFHVVIAGPQDSPFEGGTFKLELFLPEEYPMAAPKVRFMTKIYHPNVDKLGRICLDILKDKWSPALQIRTVLLSIQALLSAPNPDDPLANDVAEQWKTNEAQAIETARAWTRLYAMNNI chain 2: not shown | – |
| -8.69 kcal/mol | 0.958 | Ube2N^R14A (enzyme, UniProt P61088 1-152, looked up, Ube2N, ubiquitin-conjugating enzyme E2 N, with R14A; source: E. coli Rossetta2 (DE3), purified (ion exchange, SEC)) MAGLPRRIIKETQALLAEPVPGIKAEPDESNARYFHVVIAGPQDSPFEGGTFKLELFLPEEYPMAAPKVRFMTKIYHPNVDKLGRICLDILKDKWSPALQIRTVLLSIQALLSAPNPDDPLANDVAEQWKTNEAQAIETARAWTRLYAMNNI | – |
| -8.54 kcal/mol | 0.854 | Ube2N^R14E (enzyme, UniProt P61088 1-152, looked up, Ube2N, ubiquitin-conjugating enzyme E2 N, with R14E; source: E. coli Rossetta2 (DE3), purified (ion exchange, SEC)) MAGLPRRIIKETQELLAEPVPGIKAEPDESNARYFHVVIAGPQDSPFEGGTFKLELFLPEEYPMAAPKVRFMTKIYHPNVDKLGRICLDILKDKWSPALQIRTVLLSIQALLSAPNPDDPLANDVAEQWKTNEAQAIETARAWTRLYAMNNI | – |
| -8.38 kcal/mol | 0.966 | Ube2N^R14D (enzyme, UniProt P61088 1-152, looked up, Ube2N, ubiquitin-conjugating enzyme E2 N, with R14D; source: E. coli Rossetta2 (DE3), purified (ion exchange, SEC)) MAGLPRRIIKETQDLLAEPVPGIKAEPDESNARYFHVVIAGPQDSPFEGGTFKLELFLPEEYPMAAPKVRFMTKIYHPNVDKLGRICLDILKDKWSPALQIRTVLLSIQALLSAPNPDDPLANDVAEQWKTNEAQAIETARAWTRLYAMNNI | – |
| -5.64 kcal/mol | 0.828 | Ube2N^S96R (enzyme, UniProt P61088 1-152, looked up, Ube2N, ubiquitin-conjugating enzyme E2 N, with S96R; source: E. coli Rossetta2 (DE3), purified (ion exchange, SEC)) MAGLPRRIIKETQRLLAEPVPGIKAEPDESNARYFHVVIAGPQDSPFEGGTFKLELFLPEEYPMAAPKVRFMTKIYHPNVDKLGRICLDILKDKWRPALQIRTVLLSIQALLSAPNPDDPLANDVAEQWKTNEAQAIETARAWTRLYAMNNI | – |
| – | – | B2 | Kd (Ube2N): 49.4 nM |
| – | – | B3 | Kd (Ube2N): 459 nM |
| -9.62 kcal/mol | 1.05 | Ube2N^A98T (enzyme, UniProt P61088 1-152, looked up, Ube2N, ubiquitin-conjugating enzyme E2 N, with A98T; source: E. coli Rossetta2 (DE3), purified (ion exchange, SEC)) MAGLPRRIIKETQRLLAEPVPGIKAEPDESNARYFHVVIAGPQDSPFEGGTFKLELFLPEEYPMAAPKVRFMTKIYHPNVDKLGRICLDILKDKWSPTLQIRTVLLSIQALLSAPNPDDPLANDVAEQWKTNEAQAIETARAWTRLYAMNNI | – |
